Assay [1] addresses major histocompatibility complex (MHC) Class I.
Assay [2] has the same target. This is another data set of the same source.

Data on eight molecules can be found in patent US20200399343A1.

As for K5, the MHC Class I expression (MFI HLA A/B/C) on transduced primary T cells (MFI HLA A/B/C) in assay [1] turned out to be 4480. In assay [2], this molecule came in with an MHC Class I expression (MFI HLA A/B/C) on transduced Jurkat cells (MFI HLA A/B/C) of 661.

On to K3, for which, in assay [1], the MHC Class I expression (MFI HLA A/B/C) on transduced primary T cells (MFI HLA A/B/C) was determined as 10900. The same molecule came in with an MHC Class I expression (MFI HLA A/B/C) on transduced Jurkat cells (MFI HLA A/B/C) in assay [2] of 2170.

Regarding US3, the MHC Class I expression (MFI HLA A/B/C) on transduced primary T cells (MFI HLA A/B/C) in assay [1] is 13000. The molecule further came in with an MHC Class I expression (MFI HLA A/B/C) on transduced Jurkat cells (MFI HLA A/B/C) in assay [2] of 5320.

B1: E19 (protein)
chain: TTQKVDFKEPACNVTFAAEANECTTLIKCTTEHEKLLIRHKNKIGKYAVYAIWQPGDTTEYNVTVFQGKSHKTFMYTFPFYEMCDITMYMSKQYKLWPPQNCVENTGTFCCTAMLITVLALVCTLLYIKYKSRRSFIEEKKMP
B1: in assay [1], the MHC Class I expression (MFI HLA A/B/C) on transduced primary T cells (MFI HLA A/B/C) turned out to be 14800. Also, in assay [2], the MHC Class I expression (MFI HLA A/B/C) on transduced Jurkat cells (MFI HLA A/B/C) was found to be 3430.

B2: US6 (protein)
chain: ERSSRDPKTLLSLSPRQQACVPRTKSHRPVCYNDTGDCTDADDSWKQLGEDFAHQCLQAAKKRPKTHKSRPNDRNLEGRLTCQRVRRLLPCDLDIHPSHRLLTLMNNCVCDGAVWNAFRLIERHGFFAVTLYLCCGITLLVVILALLCSITYESTGRGIRR
Molecule B2 displayed an MHC Class I expression (MFI HLA A/B/C) on transduced primary T cells (MFI HLA A/B/C) in assay [1] of 9500. The molecule also yielded an MHC Class I expression (MFI HLA A/B/C) on transduced Jurkat cells (MFI HLA A/B/C) in assay [2] of 1720.

B3: US2 (protein)
chain: MNNLWKAWVGLWTSMGPLIRLPDGITKAGEDALRPWKSTAKHPWFQIEDNRCYIDNGKLFARGSIVGNMSRFVFDPKADYGGVGENLYVHADDVEFVPGESLKWNVRNLDVMPIFETLALRLVLQGDVIWLRCVPELRVDYTSSAYMWNMQYGMVRKSYTHVAWTIVFYSINITLLVLFIVYVTVDCNLSMMWMRFFVC
In turn, B3 came in with an MHC Class I expression (MFI HLA A/B/C) on transduced primary T cells (MFI HLA A/B/C) in assay [1] of 14500. The molecule also displayed an MHC Class I expression (MFI HLA A/B/C) on transduced Jurkat cells (MFI HLA A/B/C) in assay [2] of 6080.

B4: ICP47 (protein)
chain: MSWALEMADTFLDTMRVGPRTYADVRDEINKRGREDREAARTAVHDPERPLLRSPGLLPEIAPNASLGVAHRRTGGTVTDSPRNPVTR
As to B4, in assay [1], the MHC Class I expression (MFI HLA A/B/C) on transduced primary T cells (MFI HLA A/B/C) was determined as 5940. Also, the MHC Class I expression (MFI HLA A/B/C) on transduced Jurkat cells (MFI HLA A/B/C) in assay [2] came to 2060.

B5: US11 (protein)
chain: MPELSLTLFDEPPPLVETEPLPPLSDVSEYRVEYSEARCVLRSGGRLEALWTLRGNLSVPTPTPRVYYQTLEGYADRVPTPVEDVSESLVAKRYWLRDYRVPQRTKLVLFYFSPCHQCQTYYVECEPRCLVPWVPLWSSLEDIERLLFEDRRLMAYYALTIKSAQYTLMMVAVIQVFWGLYVKGWLHRHFPWMFSDQW
In turn, B5 registered an MHC Class I expression (MFI HLA A/B/C) on transduced primary T cells (MFI HLA A/B/C) in assay [1] of 14600. For the same molecule, in assay [2], the MHC Class I expression (MFI HLA A/B/C) on transduced Jurkat cells (MFI HLA A/B/C) was 8080.
